For one data set, the target named is T1, Nrd1 RRM (UniProt P53617 340-410).
T1 sequence: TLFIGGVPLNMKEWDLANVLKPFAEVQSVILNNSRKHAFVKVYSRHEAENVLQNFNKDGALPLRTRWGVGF
Put plainly: fluorescence anisotropy. For orientation: Polarisation of emitted light reports the rotation of a fluorescent probe.

For the next data set, the target named is T2, Nab3 RRM (Saccharomyces cerevisiae, UniProt P38996 321-415).
T2 sequence: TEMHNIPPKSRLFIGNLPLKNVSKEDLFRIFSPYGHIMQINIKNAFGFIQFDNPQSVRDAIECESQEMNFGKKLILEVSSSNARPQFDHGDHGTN
Put plainly: fluorescence anisotropy.

Where only a bound is given, the exact number is not on record here.

GUAA (ssRNA) returned a Kd with Nrd1 RRM of 66 ± 1 µM. In addition, the binding signal with Nab3 RRM was > 6 fold lower affinity than UCUU.

Consider UCUU (ssRNA) [UCUU (FA)], for which, in the data set with Nab3 RRM, the binding signal was ~10 fold weaker than snR47 (1 order of magnitude; Kd only in figure).

For orientation: Kd means a measure of binding affinity in units of concentration. Higher therefore signals lower affinity.

(Values after PMC3030368.)
